# From publication PMC9960136, “VH-Based Mini Q-Body: A Novel Quench-Based Immunosensor” (Sensors (Basel, Switzerland), 2023)
# Substitutions are numbered along the chain they refer to. Numbers in names are those of the source.
# B1: C3 mini Q-body labeled with TAMRA-C6(5) (VHH)
# VHH: EVQLLESGGGLVQPGGSLRLSCAASGFRDSDEDMGWVRQAPGKGLEWVSSIYGESGSTYYADSVKGRFTISRDNSKNTLYLQMNSLRAEDTAVYYCASYNYYYNVFDYWGQGTLVTVSS
# notes: as the VH of m1; Same chain as m1 with the dye on the Cys-tag; not shown: His-tag, C-terminal, kept
# B2: C3 mini Q-body labeled with TAMRA-C0 (VHH)
# VHH: B1 VHH
# notes: as for B1
# B3: C3 mini Q-body labeled with ATTO520 (VHH)
# VHH: B1 VHH
# notes: as the VH of m1; Same chain as m1 with the dye on the Cys-tag; also called ATTO520-C2; not shown: His-tag, C-terminal, kept
# B4: C3 mini Q-body labeled with TAMRA-C6(6) (VHH)
# VHH: B1 VHH
# notes: as for B1
# B5: C3 mini Q-body labeled with rhodamine 6G (R6G-C5) (VHH)
# VHH: B1 VHH
# notes: as the VH of m1; Same chain as m1 with the dye on the Cys-tag; also called R6G-C5 Q-body; Rhodamine 6G-labeled mini Q-body; not shown: His-tag, C-terminal, kept
# B6: C3 mini Q-body labeled with TAMRA-C5 (VHH)
# VHH: B1 VHH
# notes: as the VH of m1; Same chain as m1 with the dye on the Cys-tag; also called TAMRA-C5-labeled C3 mini Q-body; TAMRA-labeled C3WT; not shown: His-tag, C-terminal, kept
# B7: C3 mini Q-body labeled with TAMRA-C2 (VHH)
# VHH: B1 VHH
# notes: as for B1
# B8: TAMRA-C5-labeled C3 W47F mini Q-body (VHH)
# VHH: B1 VHH with W47F
# notes: as the VH of m1 with W47F; Same chain as m10 with the dye on the Cys-tag; also called W47F (after labeling with TAMRA-C5); source: labeled with TAMRA-C5; not shown: His-tag, C-terminal, kept
# B9: C3 mutant W47F (unlabeled) (VHH)
# VHH: B1 VHH with W47F
# notes: as the VH of m1 with W47F; not shown: His-tag, C-terminal, kept
# B10: C3 mutant W36F (unlabeled) (VHH)
# VHH: B1 VHH with W36F
# notes: as the VH of m1 with W36F; not shown: His-tag, C-terminal, kept
# Target: T1, bovine serum albumin (Bos taurus (bovine), UniProt P02769)
# T1 construct: bovine serum albumin (BSA); No supplier is named for BSA; also called BSA; control antigen
# T1 sequence (P02769 25-607): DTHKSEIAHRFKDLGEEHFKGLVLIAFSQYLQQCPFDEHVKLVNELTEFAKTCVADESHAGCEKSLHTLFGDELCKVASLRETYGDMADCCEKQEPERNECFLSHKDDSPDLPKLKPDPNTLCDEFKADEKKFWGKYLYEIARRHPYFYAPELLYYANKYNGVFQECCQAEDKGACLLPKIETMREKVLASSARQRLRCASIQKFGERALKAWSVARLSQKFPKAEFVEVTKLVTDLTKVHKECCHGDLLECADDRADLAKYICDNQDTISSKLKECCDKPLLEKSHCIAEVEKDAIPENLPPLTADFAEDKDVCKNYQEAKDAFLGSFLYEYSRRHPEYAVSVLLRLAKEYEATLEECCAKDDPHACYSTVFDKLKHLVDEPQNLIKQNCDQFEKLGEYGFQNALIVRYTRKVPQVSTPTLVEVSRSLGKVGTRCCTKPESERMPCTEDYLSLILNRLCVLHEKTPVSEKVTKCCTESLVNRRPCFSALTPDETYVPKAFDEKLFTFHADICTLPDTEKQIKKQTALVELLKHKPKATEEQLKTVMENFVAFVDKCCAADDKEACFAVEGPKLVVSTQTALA
# Assay: other fluorescence titration; de-quenching at one concentration: 10 ng mini Q-body in 250 μL PBST; 10 μM antigen added, measured after 5 min; BSA as control antigen
# Settings: both partners purified
row,binding result,Binder
1,no binding,B1
2,no binding,B2
3,no binding,B3
4,no binding,B4
5,no binding,B5
6,no binding,B6
7,no binding,B7

# Target: T2, hen egg lysozyme (Gallus gallus (hen), UniProt P00698)
# T2 construct: hen egg lysozyme (HEL), lysozyme C of the chicken; No supplier is named for HEL; also called HEL; antigen
# T2 sequence (P00698 19-147): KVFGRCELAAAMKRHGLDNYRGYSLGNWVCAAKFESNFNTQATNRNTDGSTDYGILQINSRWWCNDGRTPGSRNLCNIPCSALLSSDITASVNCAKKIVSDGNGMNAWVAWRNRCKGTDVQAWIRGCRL
# Assay: ELISA; HEL or BSA (2 μg/mL in 100 μL PBS) coated on microplate wells, 16 h 4 °C; sdAb or mini Q-body added at 2 μg/mL, 1 h 37 °C; bound protein probed with anti-His-HRP
# Settings: both partners purified
row,binding result,Binder
1,binds,B8
2,binds,B9
3,no binding (tested: 2 μg/mL),B10

# Target: T2, hen egg lysozyme
# Assay: other fluorescence titration; de-quenching dose response: 10 ng mini Q-body in 250 μL PBST in a quartz cell; antigen added stepwise (0, 1 nM to 10 μM) at 5 min intervals; EC50 by 4-parameter logistic fit
# Settings: both partners purified
row,EC50,Binder
1,401 nM,B1
2,39 nM,B2
3,276 nM,B3
4,362 nM,B4
5,397 nM,B5
6,263 nM,B6
7,50 nM,B7
